Test: yeast display, Sf9 membrane polyspecificity reagent, FACS + sequencing; frameworks hold sequencing errors
Method in brief: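 Nanobodies from a synthetic yeast display library (Saccharomyces cerevisiae BJ5465), induced 36–48 hours with galactose, were stained 1 hour at 4 °C with 10% biotinylated, detergent-solubilized Sf9 membrane reagent, enriched on streptavidin microbeads, then FACS-sorted. Anti-HA (expression) and streptavidin (reagent binding) fluorescence set low and high (top ~1%) gates. Polyreactivity labels come from the gate of origin. Genes were colony-PCR amplified, MiSeq 2 × 250 sequenced and filtered by CDR length.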

Row | Sequence | polyreactivity (PSR sort gate)
1 | QVQLVESVGGLVQAGGSLRLSCAASGSIFVPYAMGWYRQAPGKEREFVAAIYSGGGNTYYADSVKGRFTISRDNAKNTVYLQMNSLIPEDTAVYYCAAAYFYSSWSRYDYWGQGTQVTVSS | high polyreactivity
2 | QVQLVESVGGLVQAGGSLRLSCAASGSILRRYAMGWYRRAPWKERELVAAIDGGGGTTYYADSVKGRFTISRDYAKKTVYLQMNSLKPEDNAVYYCAADASWELIAWAHYDYWGQGTQVSVSS | low polyreactivity
3 | QVQLVESVGGLVQAGGSLRLSCAASGSIRYYAMGWYRQAPGKERELVAAISSRGTNTYYADSVKGRFTISRDNAKNTVYLQMNSLKPEDTAVYYCNAVVGLGYNYWGQGTQVTVSS | high polyreactivity
4 | QVQLVESVGGLVQAGGSLRLSCAASGSTCQRYAIGWYRQAPGKERELVAAISDGGSTNYADSVKGRFTISRDNAKNTVYLQMNSLKPEDTAVSYCAAKYLSRYDYWGQGTQVTVSS | low polyreactivity
5 | QVQLVESVGGLVQAGGSLRLSCAASGSTFDDNAMGWYRQAPGKERELVASITYRGGSTYYADSVKGRFTISRDNAKNTVYLQMNSLKPEDTAVYYCAKGHYFKYDYWGQGTQVTVSS | low polyreactivity
6 | QVQLVESVGGLVQAGGSLRLSCAASGSTFGHYAMGWYRQAPGKERELVSAISTSGGRTYYADSVKGRFTISRDNAKNTVYLQMNSLKPEDTAVYYCATRRYGVDKFDYWGQGTQVTVSS | high polyreactivity
7 | QVQLVESVGGLVQAGGSLRLSCAASGSTFLVYAMGWYRQAPGKERELVAAITQIDGSTYYADSVKGRFTISRDNAKNTVYLQMNSLKPEDTAVYYCAARYFWTYEYDYWGQGTQVTVSS | low polyreactivity
8 | QVQLVESVGGLVQAGGSLRLSCAASGSTFVDYAMGWYRQAPGKERELVAAINSDGGGTYYADSVKGRFTISRDNAKNTVYLQMNSLKPEDTAVYYCNVEYVDYYAQRYGYDYWGQGTQVTLSS | low polyreactivity
9 | QVQLVESVGGLVQAGGSLRLSCAASGSTFWTNAMGLYRQAPGKERELVATISKTTGRTYYADSVKGRFTISRDNAKNTVYLQMNSLKPEDTAVYYCAAEPYSWDTWVDYDYWGQGTQVTVSS | low polyreactivity
10 | QVQLVESVGGLVQAGGSLRLSCAASGSTFYENTMGWYRQAPGKERELVAAISRSGVSTYYADSVKGRFTISRDNAKNTVYLQMNSLKPQDTAVYYCAAIVYRRYDYWGQGTQVTVSS | high polyreactivity
11 | QVQLVESVGGLVQAGGSLRLSCAASGSTFYTYDMGWYRQAPGKERELVAAISRRDGITYYADSVKGRFTISRDNAKNTVYLQMNILKPEYTAVYYCAAEDAYLYYDFDYWGQGTQVTVSS | low polyreactivity
12 | QVQLVESVGGLVQAGGSLRLSCAASGSTISLYKGWYRQAPGNETELVAAITYSGGRTYYADSVKGRFTISRDNAKNTVYLQMNSLKPEDTAVYYCATVFNDLTVYEYWSRFDYWGQGTQVTVSS | low polyreactivity
13 | QVQLVESVGGLVQAGGSLRLSCAASGTIFGWYAMGWYRQAPGKEREMVATIDASGRSTFYADTVKGRFTISRDNAKNTVYLQMNSLKPEDTAVYYFNSRYPRQYWGGYDYWGQGTQVTVSS | low polyreactivity
14 | QVQLVESVGGLVQAGGSLRLSCAASGYIFATNAMGWYRQAPGKERELVAAITRSGGRTYYADSVKGRFTISRDNAKNTVYLQMNSLKPEDTAVYYCAAARPTNIYYYWGQGTQVTVSS | high polyreactivity
15 | QVQLVESVGGLVQAGGSLRLSCAAYGRIFAWYAMGWYIQAPGKERELVAVITSSDGSTHYADSVKGRFTISRDNAKNTVYLQMNSLKPEDTAVYYCNADSQRPRRSSTYWGQGTQVTVSS | low polyreactivity
16 | QVQLVESVGGLVQAGGSLRLSCASSGSTFTYYAKVWYRQAPGKERELVAAISCTGTSTYYADSVKGRFTISRDNAKNTVYFQMNSLKPEDTAVYYSASTYRGYSGYKRRDYWGQGTQVTVSS | high polyreactivity
17 | QVQLVESVGGLVQAGGSLRLSLAASGFTFWYYAMGWYRQAPGKERELVAVINTSGGSTYADSVKGRFTISRDNAKNTVYLQMNSLKPEDTAVYYCAAEGISTYPYDYCGQGTQVTVSS | low polyreactivity
18 | QVQLVESVGGLVQAGGSLRLSSAASGIIFRRYPMVWYREPPGKDRELVAAISSGGRTYYADSGKGRFTISRDNAKNSVYLHMNSLKQEDTAVYYCAARWWYKNKYWGQGTQVTVSS | high polyreactivity
19 | QVQLVESVGGLVQAGGSLRLSSAASGYTSNIYAMGWYRQAPGTERELVASIRGRSGSTYYADSVKGRFTISRDNAKNSVYLQMNSLKPEDTAVYYCAGSRPWDFYRFGFDYWGQGTQVTVSS | high polyreactivity
20 | QVQLVESVGGLVQAGGSLSISCAASGRIFPRNAMGWYRPAPGKERELVAAISSGGGGTYYADSVKGRFTISRDNAKNTVYLQMNSQKPEDTAVYYCAAYVVRWWCDGDYWGQGTQVTVSS | high polyreactivity
21 | QVQLVESVGGLVQAGGSLSLRCAASGLISRRNAMGWYRQAPGKERELVAAISTGSSTNYADSVKGRFTISRDNAKNTVYLQMNSLKTEDTAFYYCATDYLAGAPCEGHVEREYDYWGQGTQVTVSS | low polyreactivity
22 | QVQLVESVGGLVQAGGTLRLSCAASGRIFCIYAMGWYRPAPGKVRSLVATITGSGGSTYYADSVKGRFTISRDNAKNTVYLQLHSLKPEDTAVYYCAARYPVSGGYDYWGQGNQVTVSS | low polyreactivity

Row | Sequence | polyreactivity (PSR sort gate)
23 | QVQLVESVGGLVQAVGSLRLSCAASGFTFSDYAMGWYRHAPGKERELVAAISTRCSSTYYADSVKGRFTISRDIAKNNVYLQMNSLKPEDTAVYYCNAVGSYSGYYYWGQGTQVTVSS | high polyreactivity
24 | QVQLVESVGGLVQVGGSLRLSCAASGSILTDYGMGWYRQAPGKERELVAAITGSGGSTYYADSVKGRFTISRDNAKNTVYLQMNSLKPEDTAVYYCAKRHVGSRYLFDYWGQGTQVTVSS | low polyreactivity
25 | QVQLVESVRGLVQAGGSLRLSCAASGRIIYLNGMGSYRQAPGKERELVAAISSSDDSTYYAVSVKGRFTISRDNATNTVYLQLNSLKPEDTAVYYCAAGYHQVQNYGDAYYWSELYSWGQGTQVTVSS | low polyreactivity
26 | QVQLVESVVGLVQAGGSLPISCAASGSTFSANDMVWYSQPHGTERELVAAIDTGGTTYYADSVKGRFTISRDNAKNTVYLQMNSLKPEYTAVYYCNATIWYRDYGYWVQGTQVTVSS | low polyreactivity
27 | QVQLVESVVGLVQAGGSLRLSCAASGRIFAYYAMGWYRQAPGKERELVAAISSSGGGTYYADSVKGRFTISRDNAKNTVYLQMNSLKPEDTAVYYCAKRVRRKYSVSHPYDYWGQGTQVTVSS | high polyreactivity
28 | QVQLVESVVGLVQAGVSLRLSCSASGFIFGRYAMGWYRQAPGKERELVADISWNGGSTYYADSVKGRFTISRDNAKNTVYLQMNSLKPEDTAVYYCAADYYWASFKYPYLRPYDYWGLGTQVTVSS | high polyreactivity
29 | QVQLVESVVGLVQARGTLRLSGATTGNTFYKNTMRWYRQPHGKERELVAAISQRGTRTYYADSVQGRFTISRDYAKNTVYLQMNSLKPEDTAVYYCPTVMSQVGFDYWGQGTQVTVSS | high polyreactivity
30 | QVQLVESWGALVQAGGSLRLSCAPSGSSKLMLWEGIDRRLGNKGSWLPLIVLVVLRNYADSVKGRFTISRDNAKNTLYLQMNSLKPDDTAVYYCAATPIGSGGWGDYWGQGTQVTLSS | low polyreactivity
31 | QVQLVESWGGIVQAGGILRLSFAAYGRIFASNAMGWYRKAPGKERELVAGISRNGGSTFYEDSVKGRYTISRDTAKNTVYLQMISLKPDDTAVYYCARYYTHSGGYRDRIYYYWGQGTQVTVSS | low polyreactivity
32 | QVQLVESWGGLVQAGGSLRISCAASGRTFPDYAMGWYRQAPGKERELVAAISSGGGTYYADSVKGRFTISRDNAKNTVFLQMNSLKPEDTAVYYCAATGVPGWVGFDYCGQGTQVTVSS | low polyreactivity
33 | QVQLVESWGGLVQAGGSLRLICAASGSTFRDYFLGWYRRAPGKERELVATISGSGGSTYYADSVKGRFTISRDNAKNTVYLQMNSLKPEDTAFYYCAAVSVSSWYDYWGQGTQVTVSS | low polyreactivity
34 | QVQLVESWGGLVQAGGSLRLRFAASVRTFVSNAMGWYRQAPGKERELVARITGSGGNTYYADSVKGRFTISRDNEKNTVYLQMNSLKPEDTAVYYCNSDVFRKFGSPSGYKSHRYDYWGQGTQVTVSS | low polyreactivity
35 | QVQLVESWGGLVQAGGSLRLSCAASGFIFQTNVMGWYRQAPGKERELVAAISSGDSTYYADSVKGRFTISRDNAKNTVYLQMNSLKPEDTAVYYCAADVLGTTTTVGGFNYWGQGTQVTVSS | low polyreactivity
36 | QVQLVESWGGLVQAGGSLRLSCAASGFTFRGYARGWYRQAPGKERELVAAISRSGGSTNFADSVKGRFTISRDNAKNTVYLQMNSLKPEDTAVYYCAAGWNPYDYWGQGTQVTVSS | high polyreactivity
37 | QVQLVESWGGLVQAGGSLRLSCAASGFTYSQYVMGWYIQAPGKERELVASITGNGGSTRYADSVKGRFTISRDNAKNTVYLHMNSLKPEDTAVYYCAARYVYFRWGSFDYWGQGTQVTVSS | high polyreactivity
38 | QVQLVESWGGLVQAGGSLRLSCAASGIIFRTYAMGWYRQAPWKERELVAAINSDGSTYYADSVKGRFTISRDNAKNTVYLQMNSLKPEDTAVYYCAATYGRSRKDGYWGQGTQVTVSS | high polyreactivity
39 | QVQLVESWGGLVQAGGSLRLSCAASGITFDGNAMGWYRQAPGKERELVAGISGSGGGTYYADSVKGRFTISRDNAKNTVYLHMNSLKPEDTAVYYCAADTSTSHAYDYWGQGTQVTVSS | low polyreactivity
40 | QVQLVESWGGLVQAGGSLRLSCAASGITFYVYAMGWYRQAPGKERELVAAISSGSSTYYADSVKGRFTISRDNAKKTVYLQMNSLKPEDTAVYYCAARYRKYLSEYWGQGTQVTVSS | high polyreactivity
41 | QVQLVESWGGLVQAGGSLRLSCAASGRIFALYAMGWYRKAPGKERELVASINSRVGSTNYADSVKGRFTISRDNAKNTVYLQMNSLKPEDTAVYYCNARFVYAYQRYYWGQGTQVTVSS | high polyreactivity
42 | QVQLVESWGGLVQAGGSLRLSCAASGRIFFVNAMGWYRQAPGKERELVAAITSGGSTSYADSVKGRFTISRDNAKNTVFLQLNSLKAEDTAVYYCAAVFYRRFDYWGQGTQVTVSS | low polyreactivity
43 | QVQLVESWGGLVQAGGSLRLSCAASGSIFFPNAMGWYRQAPWKERELVAAIRGGTNTYYADSVKGRFTISRDNAKNTVYLQMNSLKPEDTAVYYCAARRSSHWFTYDYWGQGTQVTVSS | high polyreactivity

Source: the nanobody polyreactivity screen of Harvey et al. (2022)
